The values that follow come from article PMC11432383.

The target in experiment [1] is SyMRP, MoxR AAA+ ATPase of Synechococcus sp. strain NKBG15041c, with a His-tag at the C-terminus (Synechococcus sp. strain NKBG15041c). As to the kind of experiment: atomic force microscopy; high-speed AFM, sample on Ni2+-coated mica, washed with 50 mM Tris-HCl pH 7.5.
Experiment [2] has the same target. Nature of the experiment: negative-stain transmission electron microscopy; carbon-coated copper grids, 2.5% uranyl acetate, 50,000x, 100 kV.
Experiment [3] shares this target. As to the kind of experiment: AUC; sedimentation velocity, 2.0 mg/mL SyMRP, 50 mM Tris-HCl pH 8.0, 200 mM NaCl, without ATP, 25 °C, 60,000 rpm, interference optics, SEDFIT.
For experiment [4] the target is unchanged. As to the kind of experiment: AUC; sedimentation velocity, 2.0 mg/mL SyMRP, 50 mM Tris-HCl pH 8.0, 200 mM NaCl, with 1 mM ATP, 25 °C, 60,000 rpm, interference optics, SEDFIT.
Experiment [5] shares this target. As to the kind of experiment: SEC; HPLC gel filtration column SB-804HQ, 50 mM Tris-HCl pH 7.5, 0.1 mM EDTA, 150 mM NaCl, 0.5 mL/min; mass from marker proteins (apparent). In general terms: SEC sorts molecules by how far they enter the pores of the column.
The target is the same in experiment [6]. As to the kind of experiment: AUC; sedimentation velocity, 2.0 mg/mL SyMRP, 50 mM Tris-HCl pH 8.0, 200 mM NaCl, without ATP, 25 °C, 60,000 rpm, interference optics, SEDFIT. The source holds these as a separate data set.

The term stoichiometry N denotes a count of units in the complex or per binding partner.

With “SyMRP, MoxR AAA+ ATPase of Synechococcus sp. strain NKBG15041c, with a His-tag at the C-terminus (enzyme)”, the stoichiometry N in experiment [1] amounted to 6; in experiment [2], 6; in experiment [3] it was 6; in experiment [5], 6; in experiment [6] it was 2. Also, in experiment [3], the weight fraction w of the 4.18 S component (small oligomer) is 4%. The substance also displayed a weight fraction w of the 7.60 S component (hexamer) in experiment [3] of 91.4%. In experiment [4], this substance displayed a weight fraction w of the 4.26 S component (small oligomer) of 2.6%. Moreover, the weight fraction w of the 7.53 S component (main component) in experiment [4] is 90.9%.
